The source of these data is paper PMC10382678.

Bounds are passed on as bounds.

In the test the target is ectoLRP4-AP (alkaline phosphatase-conjugated ectodomain of mouse LRP4) (mouse) (UniProt Q8VI56). The experiment in a line: ELISA; plate-binding assay, competition: 500 nM purified recombinant neural agrin added to 25 nM ectoLRP4-AP on ColQ-coated wells; agrin as the competitor that binds LRP4.
Chain of ectoLRP4-AP (alkaline phosphatase-conjugated ectodomain of mouse LRP4) (mouse) (Q8VI56 21-1725): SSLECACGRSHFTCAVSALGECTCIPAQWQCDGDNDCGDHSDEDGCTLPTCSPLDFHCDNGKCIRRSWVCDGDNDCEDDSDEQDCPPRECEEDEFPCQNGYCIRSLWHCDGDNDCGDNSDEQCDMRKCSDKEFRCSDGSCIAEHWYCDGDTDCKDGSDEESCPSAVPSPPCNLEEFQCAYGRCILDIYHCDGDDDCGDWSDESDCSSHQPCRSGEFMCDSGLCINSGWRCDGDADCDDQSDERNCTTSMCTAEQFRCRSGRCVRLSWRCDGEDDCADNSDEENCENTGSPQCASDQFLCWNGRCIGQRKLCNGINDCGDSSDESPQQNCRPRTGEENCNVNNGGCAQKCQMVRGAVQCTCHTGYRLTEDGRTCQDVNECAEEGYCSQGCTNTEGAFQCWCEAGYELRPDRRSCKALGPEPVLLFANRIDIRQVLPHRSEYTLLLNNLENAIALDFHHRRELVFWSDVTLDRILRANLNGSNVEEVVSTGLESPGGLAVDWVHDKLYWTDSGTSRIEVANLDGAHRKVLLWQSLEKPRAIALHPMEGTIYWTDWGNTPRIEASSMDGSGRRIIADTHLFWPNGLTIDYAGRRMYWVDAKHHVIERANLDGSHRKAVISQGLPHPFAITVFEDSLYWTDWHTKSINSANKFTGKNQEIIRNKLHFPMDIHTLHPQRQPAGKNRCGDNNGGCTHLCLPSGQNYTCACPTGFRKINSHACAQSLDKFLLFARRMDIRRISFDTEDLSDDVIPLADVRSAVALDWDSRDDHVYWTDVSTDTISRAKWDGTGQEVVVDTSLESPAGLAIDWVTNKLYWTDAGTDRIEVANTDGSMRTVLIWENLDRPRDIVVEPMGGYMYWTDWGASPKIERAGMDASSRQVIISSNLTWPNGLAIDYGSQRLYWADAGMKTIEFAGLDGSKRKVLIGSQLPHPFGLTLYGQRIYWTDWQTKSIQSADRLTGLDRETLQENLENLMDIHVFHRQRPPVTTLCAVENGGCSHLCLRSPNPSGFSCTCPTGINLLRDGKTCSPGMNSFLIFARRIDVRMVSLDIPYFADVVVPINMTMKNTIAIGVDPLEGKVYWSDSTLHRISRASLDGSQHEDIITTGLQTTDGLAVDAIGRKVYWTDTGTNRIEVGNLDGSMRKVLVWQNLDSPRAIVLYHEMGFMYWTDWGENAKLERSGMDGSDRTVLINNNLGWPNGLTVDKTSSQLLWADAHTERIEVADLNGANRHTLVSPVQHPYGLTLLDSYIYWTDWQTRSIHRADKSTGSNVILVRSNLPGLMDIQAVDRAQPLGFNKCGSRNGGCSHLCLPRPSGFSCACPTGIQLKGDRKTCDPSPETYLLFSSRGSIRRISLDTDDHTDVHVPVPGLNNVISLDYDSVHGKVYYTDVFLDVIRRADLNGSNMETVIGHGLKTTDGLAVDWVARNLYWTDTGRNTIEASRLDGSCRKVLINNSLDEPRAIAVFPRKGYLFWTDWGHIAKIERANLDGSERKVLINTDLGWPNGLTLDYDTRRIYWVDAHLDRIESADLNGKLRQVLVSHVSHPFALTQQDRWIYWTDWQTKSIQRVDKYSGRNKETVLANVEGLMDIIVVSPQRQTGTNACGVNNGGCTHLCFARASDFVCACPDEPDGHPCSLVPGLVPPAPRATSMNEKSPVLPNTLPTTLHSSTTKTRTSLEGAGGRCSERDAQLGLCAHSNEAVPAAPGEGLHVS

With “recombinant rat neural agrin (Sf21-derived C-terminal agrin, His-tagged, R&D Systems) (from UniProt P25304 1-1959) (ligand)”, the percent reduction of ectoLRP4-AP (25 nM) binding to ColQ by 500 nM agrin is over 50%.
